Data as given in article PMC11178655, “Dosimetry and pharmacokinetics of [^177Lu]Lu-satoreotide tetraxetan in patients with progressive neuroendocrine tumours” (European Journal of Nuclear Medicine and Molecular Imaging, 2024).
Like-named read-outs stand apart in the source and are kept apart here. Where a SMILES comes first, the peptide text is derived from it. Bridges are numbered along the chain shown (N, C = ends). [ ]: non-standard residue; d: D form. The star is where a group is joined. DOTA = O=C(O)CN1CCN(CC(=O)O)CCN(CC(=O)*)CCN(CC(=O)O)CC1; dPhe(4-NHCONH2) = NC(=O)Nc1ccc(C[C@@H](N)C(=O)O)cc1; Dihydroorotyl(S) = O=C1C[C@@H](C(=O)*)NC(=O)N1; Phe(4-Cl) = N[C@@H](Cc1ccc(Cl)cc1)C(=O)O; Phe(4-NH2) = Nc1ccc(C[C@H](N)C(=O)O)cc1

Experiments:
[1] = test system: patients with progressive, SSTR-positive NETs; experiment: Blood-based bone marrow dosimetry (part A); format: in vivo, human; conditions: cycles 1–3, 11 evaluated patients, median
Procedure: (§1) To generate pharmacokinetic data, blood samples (2 mL) were taken at the stop of infusion (0 min) and 5, 30, and 60 min, 4 h, and 1, 2, 3, and 6 days after the end of each [^177Lu]Lu-satoreotide tetraxetan administration. Urine samples were collected over three intervals within 48 h (0–6 h, 6–24 h, and 24–48 h in part A; 0–4 h, 4–24 h, and 24–48 h in part B) following the first treatment cycle of [^177Lu]Lu-satoreotide tetraxetan. Total activity concentrations in whole blood and urine were determined locally, using a gamma counter calibrated for lutetium-177. In two selected study centres, additional blood samples (2 mL) were collected at 1 min, 4 h, and 1, 2, 3, and 6 days after each [^177Lu]Lu-satoreotide tetraxetan administration to evaluate potential radioactive metabolites in plasma.
Patient-specific dosimetry calculations were performed after each treatment cycle in both parts A and B, using the absorbed dose calculation features of the NUKDOS software for image-based dosimetry calculations. The NUKDOS software was chosen as it allowed for an integral approach to organ dosimetry (including image quantification, time-activity curve-fitting and dosimetry calculation). For the bone marrow, both image-based and blood-based calculations were performed in part A [28, 29]. In part B, only image-based bone marrow dosimetry was performed. […]

[2] = test system: patients with progressive, SSTR-positive NETs; experiment: Time-activity curves of whole body and organs (planar whole-body imaging, SPECT/CT); format: in vivo, human; conditions: first treatment cycle, parts A and B; median
Procedure: In both parts A and B of the study, patients underwent planar whole-body imaging at 4 h and 1, 2, 3, and 6 days after each [^177Lu]Lu-satoreotide tetraxetan treatment cycle. Patients in part A also underwent single-photon emission computed tomography/computed tomography (SPECT/CT) at 24 h after each [^177Lu]Lu-satoreotide tetraxetan cycle. Those in part B underwent SPECT/CT, immediately before or after planar scintigraphy, at 4 h, and 1, 2, 3, and 6 days after each [^177Lu]Lu-satoreotide tetraxetan administration. Full details of the image acquisition methodology are provided in the Supplementary Information. Reconstruction parameters were set up to produce isotropic voxels of < 5 mm; voxels were continuous throughout the field of view. Anatomic coverage of the acquisition was determined according to the patients’ tumour locations on the planar whole-body scan acquisition with liver, both kidneys and spleen in the same bed position. […] VOIs for the same organs were drawn for all SPECT/CT images acquired in part B. All ROIs/VOIs were then used for activity quantification. […] Full details of the tumour delineation and activity quantification methodology are provided in the Supplementary Information.

[3] = Urinary excretion of radioactivity within 48 h (gamma counter); format: in vivo, human; conditions: first treatment cycle; for dose excreted: human, urine, iv, total radioactivity, read-out: Cumulative urinary excretion within 48 h
Procedure: as §1

[4] = Radioactive metabolites in plasma; format: in vivo, human; conditions: 1 min, 4 h, and 1, 2, 3, and 6 days after each administration, two study centres
Procedure: as §1

[5] = test system: patients with progressive, SSTR-positive NETs; conditions: cited from earlier work
Description: Here, we fully explore the biodistribution and dosimetry of [^177Lu]Lu-satoreotide tetraxetan in a dosage-finding, phase I/II study (NCT02592707; registered October 30, 2015) of 40 patients with progressive, SSTR-positive NETs treated with [^177Lu]Lu-satoreotide tetraxetan. A plain language summary of this publication can be found in the Supplementary Information. […] Acute haematological toxicity may be a dose-limiting factor for [^177Lu]Lu-satoreotide tetraxetan, and for ^177Lu-labelled somatostatin analogues in general. There is limited correlation between absorbed radiation doses to the bone marrow and development of haematologic toxicity. Therefore, it is important to carefully monitor hematological parameters during ...

[6] = test system: patients with progressive NETs; conditions: cited from earlier work
Description: A novel radiolabelled SSTR antagonist, [^177Lu]Lu-satoreotide tetraxetan (also known as [^177Lu]^177Lu-SSO110, [^177Lu]^177Lu-IPN01072, [^177Lu]^177Lu-OPS201 or [^177Lu]^177Lu-DOTA-JR11), has recently shown a favourable pharmacokinetic and biodistribution profile, as ... || In the present study, we observed tumour ADCs of 5.0 Gy/GBq after cycle 1 and 4.0 Gy/GBq after cycle 3. These tumour ADCs are consistent with previously reported findings from a direct comparison of [^177Lu]Lu-satoreotide tetraxetan and [^177Lu]Lu-DOTA-TATE in the same tumours and patients in a cross-over design, which reported median tumour dose of [^177Lu]Lu-satoreotide tetraxetan of 7.0 Gy/GBq (range: 4.2–29 Gy/GBq), 3.5 times greater than the median tumour dose of [^177Lu]Lu-DOTA-TATE [22]. However, it should be noted that median tumour dose in this pilot study was calculated from a limi ...

[7] = on average, single mean activity 1.0 GBq vs 1.1 GBq, four patients

With `C[C@@H](O)[C@@H]1NC(=O)[C@H](CCCCN)NC(=O)[C@@H](Cc2ccc(NC(N)=O)cc2)NC(=O)[C@H](Cc2ccc(NC(=O)[C@@H]3CC(=O)NC(=O)N3)cc2)NC(=O)[C@H](NC(=O)[C@H](Cc2ccc(Cl)cc2)NC(=O)CN2CCN(CC(=O)O)CCN(CC(=O)O)CCN(CC(=O)O)CC2)CSSC[C@@H](C(=O)N[C@H](Cc2ccc(O)cc2)C(N)=O)NC1=O` [[^177Lu]Lu-satoreotide tetraxetan, metal not drawn] ({DOTA}-[Phe(4-Cl)][dC][Phe(4-NH2)](Dihydroorotyl(S))[dPhe(4-NHCONH2)]KTC[dY]-NH2; disulfide 2-7 (inferred); C-terminus assumed) the “Cumulative absorbed dose, bone marrow, blood-based method” value [1] was 0.3 Gy, the “Whole body uptake at 6 days” value [2] was 11.5 % administered activity and the “Cumulative urinary excretion within 48 h” value ([3]; patients treated with 4.5 GBq) was 57–66%. The “Radioactivity excreted via urine within 48 hours” value ([3]; patients treated with 4.5 GBq, range of medians across groups) was 2.6–3.0 GBq, the “Radioactivity excreted via urine within 48 hours” value ([3]; patients treated with 6 GBq, median) was 3.4 GBq and the dose excreted ([3]; patients treated with 4.5 GBq) was 57 to 66%. For the same compound, the dose excreted ([3]; patients treated with 6 GBq) was ~57%, the “Radioactive metabolites in plasma samples” value [4] was “No radioactive metabolites were observed” and the “Grade 3/4 kidney toxicity” value ([5]; 40 patients) was “no reported grade 3/4 kidney toxicity”. For the same compound, the “Grade 3/4 treatment-related lymphopenia” value ([5]; 40 patients) was 7.5 % of patients, the “Disease control rate at 12 months” value [5] was 94.7% and the Median tumour dose ([6]; cross-over design, 13 lesions in 4 patients) was 7.0 Gy/GBq. The “Tumour absorbed dose compared with [^177Lu]Lu-DOTA-TATE” value [6, 7] was “three-fold higher”, the “Tumour-to-kidney absorbed dose ratio compared with [^177Lu]Lu-DOTA-TATE” value [6, 7] was “two-fold higher” and the “Median tumour dose relative to [^177Lu]Lu-DOTA-TATE” value ([6]; same tumours and patients, cross-over) was 3.5 times.
